# Test results: the DeepSol protein solubility set
# Assay: soluble on expression in E. coli; label from the status in PepcDB or PDB records
row,Sequence,soluble on expression in E. coli
1,MENALSTLPLTAPSAELPRFGPPHIPIREDWLDRQREEILDPGLPIVDAHHHLWDRPGQRYMFEDFLRDTGSGHNIRATVYVQCRSMYRLDGPAAMRPVGEAEFVNGVAARSASGMYGPMRACAAIVGYADLTLGAAVEEVLHALVRAAPDRLRGVRNMTAAHASPAVAPGFGRVPEGLLSDARFRAGYARLAPLGLSYDVWAFHSQLAEVLDLARAYPDTALIVNHAGGPLGIGPYAGQRDAVMRDWDHHLRALADCPNVALKLGGLGMHISGLRFHEQDMPPSSEALAEAWRPWIHTAIERFGAQRCMFESNFPVDKGMAAYAAVWNAFKRLARGATPRERQALFAGTAARLYRLPASVLALEHHHHHH,not soluble
2,MGSDKIHHHHHHMNTIEDNLNQRISARIRIERESRGWSLNDLAERAGASRAMIHKIERGESSPTASMLGRLSGAFGISMSTLIARAEMQEGKLLRFASQPVWRDPQSHYLRRHVSPRSDLPIDLVQIELPPGSDVPMPAASYALARQLIWLQQGELVFVEGNTRHEMQAGDCLELGPPNDCRFINESAETCVYLVVRLNQSPSGS,not soluble
3,MEKKKVVLAYSGGLDTSVAIKWLQEKNYDIIALCLDLGEGKDLAFVKEKALSVGAIKSYMIDVQEEFANEYALMAMQAHTLYEGKYPLVSALSRPLIAKKLVEIAEQEGATAVAHGCTGKGNDQVRFEVSIQALNPYLEVIAPVREWKWSREEEIAYAKENNVPIPINLDSPFSIDQNLWGRSNECGILEDPWAAPPEDAYEMTLALEDTPNKPEFVEIGFEAGVPTTLNGTAYPLSELIKTLNALAGKHGVGRIDHVENRLVGIKSREVYECPAAMTLITAHKELEDLTLVKEVAHFKPMIEQKITELIYNGLWFSPLKQALHAFLQETQKNVTGTVRVKLFKGHAIVEGRKSEYSLYDEKLATYTAQDEFNHDAAVGFISLFGLPTKVYSQVNQKKVEA,not soluble
4,MRLLVSCVDSGSIKEVLCNIGTDTSVQSALQPFHVAPHLAEGLKAYVDRMWVISEDEAILARNSGVVELVKISKHLKENEALQVDPKGESKNEKSLSDDLPKFDISEFEITSSVSDLFDDAKLESLSSKSVKRTKLVDGFVTLCPIKKDSSNNTFVAATKSGLLHIIKKGEDKKLIKLASLGLKAPVEFLQLYDLEDTDTDKYIFAYGGEENLIKLVEIDSSFQSLKQIWEAKNVKNDRLDMRVPVWPMALRFLEPSPGKTEKGKLNYQFAAITRWSHLTKYSTQHGRKPFAQIDLLPNREPLSQMEVFDAKGENVVSSLGNFQSETFNELNVITTDYKKNVFKFDGNGRMLGKVGRDDITGSSTYIHVHDGKYLLQGGLDRYVRIFDIKTNKMLVKVYVGSRINFIVMLDDVEIEMPLSPSAKAAKGKQKRKVTELEEDADELWNKLEGKVAASKASKKSKI,soluble
5,AKVATGTDILSAASNVSLQKARTWDEGVESKFSTTPVNDIFKDKKVVIFGLPGAYTGVCSSKHVPPYKHNIDKFKAKGVDSVICVAINDPYTVNAWAEKIQAKDAIEFYGDFDGSFHKSLELTTDLSAGLLGIRSERWSAYVVDGKVKALNVEESPSDVKVSGAETILGQI,soluble
6,MSLTGANDSNYDPFAGLSFRVGVAENKNTTFRNKMEDVHTYIANFAERVDWGYFAIFDGHAGKDTARWCGNNLHTLLEEEIDRNSDEGSPPPTPITGKDDLREDLYKCFVKADELIEKSGQGKSGCTAAVAVLRWESDNEEPVSHTKSQDGGKFDFKPTKNHKRLLYTSNVGDLRIVLCRAGQAYRLSYDHKATDTHEINRIEDNGGLVLKNRVNGVLAVTRSLGDTYMKLLVIGVPFTTATEITADDEFIIIACDGLWDVVSDKHACKLAAESFKQGYSPLQVAKKLCQFAIELSTTDNVTVMVVQLDNDVFSEGHHHHHH,soluble
7,MSAAASMFVRQFFHGTRADLSPGELIVVGYQSNFTTAAPLSWVYFSGTLDAAIWGAELAAGDAPQRIYVVEPTGPFEDDPNLTDKKFPGNPTLSYRSKHPLRIVAEMTKWQGHSPERVQQMKDGLARLSAEGAEIID,not soluble
8,MKSTMGIILTGGKNDRLKELAEMRSSTAVPIGGKYRVIDFVLSNMVNSGIKNIGVLTQYSFRSLMDHLGSGKEWDLDRRNEGLFIFPPYLAGEHSGWYQGSADAMYHNITFLKRSYEEYVLVAQGNCVYKMLFDDMLDYHIKKNADITIAYRDMSDFPREELSFMGVMTMDENRRVVDFKEKHKNPESTICSMGIYILKRELLIALLEECNSHGKYDFVKDVIINKLPTLNIYGYKFEGYWRNLNSINAYYRINMEMLNPEIRYQLFEQHGKVYTKVKDEPPAKYNEEAEVRNSIIADGCIIEGTVINSVLFRGVTIKRNAVVKDCIIMQDSVIEEDVDIESLIIDKNVYLSKGIRLKGMVNFPITIGKNAVI,not soluble
